Source: patent publication US20180362616

Target: T1, APPI-WT (SEQ ID NO: 25), soluble, expressed in Pichia pastoris
T1 chain: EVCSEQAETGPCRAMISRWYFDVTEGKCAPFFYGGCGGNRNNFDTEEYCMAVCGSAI

B1: human mesotrypsin (catalytically active) (protein)
chain: IVGGYTCEENSLPYQVSLNSGSHFCGGSLISEQWVVSAAHCYKTRIQVRLGEHNIKVLEGNEQFINAAKIIRHPKYNRDTLDNDIMLIKLSSPAVINARVSTISLPTTPPAAGTECLISGWGNTLSFGADYPDELKCLDAPVLTQAECKASYPGKITNSMFCVGFLEGGKDSCQRDSGGPVVCNGQLQGVVSWGHGCAWKNRPGVYTKVYNYVDWIKDTIAANS
Work on B1 yielded a Kcat (s^-1) of hydrolysis of APPI by mesotrypsin (HPLC time course) of 0.0356 s⁻¹.
